# Measured values from publication PMC2949506.
# Legend:
# [1] = target: Elongin BC complex (human Elongin B with Elongin C residues 17-122) (human) (UniProt Q15370); experiment: HDX-MS
# [2] = target: Elongin BC complex (Homo sapiens) (UniProt Q15370); experiment: ITC; conditions: cited from earlier work
# [3] = target: HIV-1 Vif (HXB2) L145A (HIV-1 (HXB2)) (UniProt P69723); experiment: pull-down
Substance,Kd [1] [nM],Kd [2] [nM],also measured
HIV-1 Vif (HXB2) L145A (from UniProt P69723) (natural protein),3900,–,–
Vif 130-180 (from UniProt P69722),–,1190,–
Full length HIV-1 Vif (HXB2) (from UniProt P69723) (natural protein),1900,–,stoichiometry N [1]: 1
Elongin BC complex (human Elongin B with Elongin C residues 17-122) (from UniProt Q15370 1-118),–,–,fold reduction of binding versus wt Vif [3]: 3 fold
Vif 139-192 (from UniProt P69722),–,0.4,–
